According to US20120014876A1 (ACADEMISCH ZIEKENHUIS MAASTRICHT, published 2012):
Bridges are numbered along the chain shown (N, C = ends). Where no end group is shown, it is not given here. rhodamine = not defined here; alkyl = not defined here

B1: Peptide UM206 (peptide)
peptide: Ac-CNKTSEGMDGCEL-NH2
modifications: cysteine pairing not given here
notes: Linear form, no disulfide bridge between the two cysteines; also called antagonist UM206
B2: UM206 (C = C-alkyl) (peptide)
peptide: C(alkyl)NKTSEGMDGC(alkyl)EL-NH2
modifications: not fully specified (N-terminus); reading uncertain; also: alkyl group not given here
B3: rhodamine-labeled UM206 (peptide)
peptide: Ac-CNK(rhodamine)TSEGMDGCEL-NH2
modifications: cysteine pairing not given here; reading uncertain
notes: UM206 with rhodamine on Lys3; end groups as UM206 (Ac-, -NH2) not restated; also called UM206-rhodamine; UM206-Rhodamine
B4: Wnt3a (ligand)
chain: SYPIWWSLAVGPQYSSLGSQPILCASIPGLVPKQLRFCRNYVEIMPSVAEGIKIGIQECQHQFRGRRWNCTTVHDSLAIFGPVLDKATRESAFVHAIASAGVAFAVTRSCAEGTAAICGCSSRHQGSPGKGWKWGGCSEDIEFGGMVSREFADARENRPDARSAMNRHNNEAGRQAIASHMHLKCKCHGLSGSCEVKTCWWSQPDFRAIGDFLKDKYDSASEMVVEKHRESRGWVETLRPRYTYFKVPTERDLVYYEASPNFCEPNPETGSFGTRDRTCNVSSHGIDGCDLLCCGRGHNARAERRREKCRCVFHWCCYVSCQECTRVYDVHTCK

Molecular target: T1, rat frizzled-2 receptor (rat, UniProt Q08464 29-570)
Assay: cell-based or functional assay

T1 sequence (Q08464 29-570): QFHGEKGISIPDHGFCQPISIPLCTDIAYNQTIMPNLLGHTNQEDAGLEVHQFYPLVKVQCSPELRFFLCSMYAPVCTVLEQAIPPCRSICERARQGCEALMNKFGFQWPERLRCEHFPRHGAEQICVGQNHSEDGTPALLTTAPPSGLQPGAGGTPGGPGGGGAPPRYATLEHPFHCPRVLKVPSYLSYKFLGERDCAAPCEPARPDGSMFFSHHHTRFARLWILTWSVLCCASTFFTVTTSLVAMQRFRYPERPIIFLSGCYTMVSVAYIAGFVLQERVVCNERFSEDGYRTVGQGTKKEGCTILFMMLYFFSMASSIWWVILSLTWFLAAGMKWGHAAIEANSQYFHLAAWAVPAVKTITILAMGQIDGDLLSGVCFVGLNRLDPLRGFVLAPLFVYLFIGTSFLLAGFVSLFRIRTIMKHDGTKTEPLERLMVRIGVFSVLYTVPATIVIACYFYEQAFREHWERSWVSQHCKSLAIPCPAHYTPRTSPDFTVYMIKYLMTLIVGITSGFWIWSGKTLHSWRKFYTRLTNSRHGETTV

| Binder | % of inhibition of Wnt3a-induced luciferase activity, peptide 1.10^-9 M |
| --- | --- |
| CNKTSAGMDGCEL-NH2 (cysteine pairing not given here) [UM206 (6 E = A)] | 84.7% |
| CNKTSEGMDGAEL [UM206 (11 C = A)] | 84.9% |
| CNKTSEGMDACEL-NH2 (cysteine pairing not given here) [UM206 (10 G = A)] | 83.3% |
| ANKTSEGMDGAEL [UM206 (C = A)] | 8.39% |
| SNKTSEGMDGSEL [UM206 (C = S)] | 17% |
| CNKTSEGMDGCAA-NH2 (cysteine pairing not given here) [UM206 (12-13 EL = AA)] | 74.3% |
| CNKTSEAMDGCEL-NH2 (cysteine pairing not given here) [UM206 (7 G = A)] | 63.1% |
| CNATSEGMDGCEL-NH2 (cysteine pairing not given here) [UM206 (3 K = A)] | 84.9% |
| CNKASEAMAGCEL-NH2 (cysteine pairing not given here) [UM206 (4 T = A, 7 G = A, 9 D = A)] | 17.5% |
| CNKTSEGADGCEL-NH2 (cysteine pairing not given here) [UM206 (8 M = A)] | 85% |
| CNKTSEGMDGC-NH2 (cysteine pairing not given here) [UM206 - (deletion of the C-terminal Glutamic acid and Leucine)] | 61.2% |
| CNVSSHGIDGCDL-NH2 (cysteine pairing not given here) [peptide CNVSSHGIDGCDL (SEQ ID NO:18)] | 62.4% |
| B1 | 75.1% |
| CNKTSEGMAGCEL-NH2 (cysteine pairing not given here) [UM206 (9 D = A)] | 60.5% |
| CNKTSEGMDGCEA-NH2 (cysteine pairing not given here) [UM206 (13 L = A)] | 86.5% |
| CAKTSEGMDGCEL-NH2 (cysteine pairing not given here) [UM206 (2 N = A)] | 79.5% |
| CNKTSEGMDGCAL-NH2 (cysteine pairing not given here) [UM206 (12 E = A)] | 85.5% |
| CNKASEGMDGCEL-NH2 (cysteine pairing not given here) [UM206 (4 T = A)] | 59.4% |
| ANKTSEGMDGCEL [UM206 (1 C = A)] | 82.6% |
| B2 | 12.4% |
| CNKTAEGMDGCEL-NH2 (cysteine pairing not given here) [UM206 (5 S = A)] | 87.3% |

Molecular target: T2, rat frizzled-1 receptor (rat, UniProt Q08463 69-641)
Assay: cell-based or functional assay

T2 sequence (Q08463 69-641): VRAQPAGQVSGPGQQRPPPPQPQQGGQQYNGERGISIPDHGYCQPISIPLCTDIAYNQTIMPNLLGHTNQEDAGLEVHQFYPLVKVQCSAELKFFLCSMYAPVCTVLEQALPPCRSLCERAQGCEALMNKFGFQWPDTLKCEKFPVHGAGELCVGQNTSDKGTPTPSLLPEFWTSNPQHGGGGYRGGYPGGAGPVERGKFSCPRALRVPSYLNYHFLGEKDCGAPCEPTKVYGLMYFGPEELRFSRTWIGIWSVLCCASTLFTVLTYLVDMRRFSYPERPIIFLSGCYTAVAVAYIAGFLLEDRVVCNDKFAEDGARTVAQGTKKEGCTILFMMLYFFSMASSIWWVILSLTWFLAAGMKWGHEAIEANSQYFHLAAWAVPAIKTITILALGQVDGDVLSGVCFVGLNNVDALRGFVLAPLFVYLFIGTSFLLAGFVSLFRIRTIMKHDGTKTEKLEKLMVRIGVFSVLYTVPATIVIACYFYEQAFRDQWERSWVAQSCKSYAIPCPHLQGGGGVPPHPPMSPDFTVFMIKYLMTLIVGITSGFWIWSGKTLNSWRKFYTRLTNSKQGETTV

| Binder | % of inhibition of Wnt3a-induced luciferase activity, peptide 1.10^-9 M |
| --- | --- |
| CNKTSAGMDGCEL-NH2 (cysteine pairing not given here) [UM206 (6 E = A)] | 70.8% |
| CNKTSEGMDGAEL [UM206 (11 C = A)] | 67.2% |
| CNKTSEGMDACEL-NH2 (cysteine pairing not given here) [UM206 (10 G = A)] | 69.9% |
| ANKTSEGMDGAEL [UM206 (C = A)] | 0% |
| SNKTSEGMDGSEL [UM206 (C = S)] | 0% |
| CNKTSEGMDGCAA-NH2 (cysteine pairing not given here) [UM206 (12-13 EL = AA)] | 66.8% |
| CNKTSEAMDGCEL-NH2 (cysteine pairing not given here) [UM206 (7 G = A)] | 52.6% |
| CNATSEGMDGCEL-NH2 (cysteine pairing not given here) [UM206 (3 K = A)] | 70.8% |
| CNKASEAMAGCEL-NH2 (cysteine pairing not given here) [UM206 (4 T = A, 7 G = A, 9 D = A)] | 11.2% |
| CNKTSEGADGCEL-NH2 (cysteine pairing not given here) [UM206 (8 M = A)] | 67.6% |
| CNKTSEGMDGC-NH2 (cysteine pairing not given here) [UM206 - (deletion of the C-terminal Glutamic acid and Leucine)] | 18% |
| CNVSSHGIDGCDL-NH2 (cysteine pairing not given here) [peptide CNVSSHGIDGCDL (SEQ ID NO:18)] | 45.3% |
| B1 | 72.2% |
| CNKTSEGMAGCEL-NH2 (cysteine pairing not given here) [UM206 (9 D = A)] | 40.5% |
| CNKTSEGMDGCEA-NH2 (cysteine pairing not given here) [UM206 (13 L = A)] | 65.9% |
| CAKTSEGMDGCEL-NH2 (cysteine pairing not given here) [UM206 (2 N = A)] | 68% |
| CNKTSEGMDGCAL-NH2 (cysteine pairing not given here) [UM206 (12 E = A)] | 65.9% |
| CNKASEGMDGCEL-NH2 (cysteine pairing not given here) [UM206 (4 T = A)] | 28.1% |
| ANKTSEGMDGCEL [UM206 (1 C = A)] | 70.8% |
| B2 | 1% |
| CNKTAEGMDGCEL-NH2 (cysteine pairing not given here) [UM206 (5 S = A)] | 74.3% |

Molecular target: T3, mouse Fzd-2 (mouse, UniProt Q9JIP6 29-570)
T3 construct: whole, on cells; also called mouse frizzled-2
Assay: rhodamine-labeled UM206 on kidney and small intestine sections

T3 sequence (Q9JIP6 29-570): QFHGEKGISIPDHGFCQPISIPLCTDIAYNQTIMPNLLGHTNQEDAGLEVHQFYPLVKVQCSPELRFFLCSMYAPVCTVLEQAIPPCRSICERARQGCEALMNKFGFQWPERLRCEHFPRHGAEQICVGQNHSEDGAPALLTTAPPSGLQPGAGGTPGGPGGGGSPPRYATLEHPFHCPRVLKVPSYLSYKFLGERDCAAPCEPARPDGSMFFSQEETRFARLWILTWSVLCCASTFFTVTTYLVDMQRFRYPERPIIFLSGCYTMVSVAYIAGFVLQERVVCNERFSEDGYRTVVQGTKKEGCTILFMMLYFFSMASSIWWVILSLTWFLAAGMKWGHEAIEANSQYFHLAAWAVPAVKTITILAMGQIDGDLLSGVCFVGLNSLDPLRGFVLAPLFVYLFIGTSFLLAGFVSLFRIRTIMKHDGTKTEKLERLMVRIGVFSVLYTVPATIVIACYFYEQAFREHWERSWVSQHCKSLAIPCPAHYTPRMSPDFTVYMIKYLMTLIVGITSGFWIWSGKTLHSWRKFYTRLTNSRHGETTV

| Binder | binding result |
| --- | --- |
| B3 | binds |

Molecular target: T1, rat frizzled-2 receptor
Assay: cell-based or functional assay
Remark: another data set of the same source

| Binder | IC50, inhibition of Wnt3a (10^-9 M)-induced luciferase activity, single binding site fit | EC50, luciferase activity (amount of agonist that yields 50% of maximum activity) | IC50, inhibition of Wnt3a (10^-9 M)-induced luciferase activity, two-binding-state fit, high affinity site | IC50, inhibition of Wnt3a-induced luciferase activity | fold increase of luciferase activity (TOPflash reporter, HEK cells) |
| --- | --- | --- | --- | --- | --- |
| Ac-GIKECQYQFRHRRWNCSTVD-NH2 (cysteine pairing not given here) [Peptide UM207] | 15.2 nM | – | – | – | – |
| Ac-CNKTSEGMDGCEL-NH2 (disulfide 1-11) [Peptide UM206(S-S)] | – | 20 nM | – | – | – |
| B1 | – | – | 0.0169 nM | 0.1 nM | – |
| B4 | – | – | – | – | 12 fold |

Molecular target: T2, rat frizzled-1 receptor
Assay: cell-based or functional assay
Remark: another data set of the same source

| Binder | IC50, inhibition of Wnt3a (10^-9 M)-induced luciferase activity, single binding site fit | EC50, luciferase activity (amount of agonist that yields 50% of maximum activity) | IC50, inhibition of Wnt3a (10^-9 M)-induced luciferase activity, two-binding-state fit, major binding site | IC50, inhibition of Wnt3a-induced luciferase activity |
| --- | --- | --- | --- | --- |
| Ac-GIKECQYQFRHRRWNCSTVD-NH2 (cysteine pairing not given here) [Peptide UM207] | 40 nM | – | – | – |
| Ac-CNKTSEGMDGCEL-NH2 (disulfide 1-11) [Peptide UM206(S-S)] | – | 10 nM | – | – |
| B1 | – | – | 2.1 nM | 1 nM |

Molecular target: T1, rat frizzled-2 receptor
Assay: inferred by the filing from inhibition curves of Wnt3a-induced luciferase activity in transfected HEK293-superTOPflash cells
Description: To determine the inhibitory constant of UM206-8, HEK293-superTOPflash cells were transfected with either rFzd-1 or -2 and incubated with Wnt3a (10⁻⁹M) in the presence of increasing concentrations of either of the peptides (FIG. 15). For UM206, a biphasic inhibition curve was observed that was best fitted with a two-binding-state model.

| Binder | fold higher affinity than to rFzd-1 |
| --- | --- |
| B1 | ~100 fold |

Molecular target: T4, mouse Fzd-1 (mouse, UniProt O70421 69-642)
T4 construct: whole, on cells; also called mouse frizzled-1
Assay: fluorescence imaging of small intestine and kidney sections

T4 sequence (O70421 69-642): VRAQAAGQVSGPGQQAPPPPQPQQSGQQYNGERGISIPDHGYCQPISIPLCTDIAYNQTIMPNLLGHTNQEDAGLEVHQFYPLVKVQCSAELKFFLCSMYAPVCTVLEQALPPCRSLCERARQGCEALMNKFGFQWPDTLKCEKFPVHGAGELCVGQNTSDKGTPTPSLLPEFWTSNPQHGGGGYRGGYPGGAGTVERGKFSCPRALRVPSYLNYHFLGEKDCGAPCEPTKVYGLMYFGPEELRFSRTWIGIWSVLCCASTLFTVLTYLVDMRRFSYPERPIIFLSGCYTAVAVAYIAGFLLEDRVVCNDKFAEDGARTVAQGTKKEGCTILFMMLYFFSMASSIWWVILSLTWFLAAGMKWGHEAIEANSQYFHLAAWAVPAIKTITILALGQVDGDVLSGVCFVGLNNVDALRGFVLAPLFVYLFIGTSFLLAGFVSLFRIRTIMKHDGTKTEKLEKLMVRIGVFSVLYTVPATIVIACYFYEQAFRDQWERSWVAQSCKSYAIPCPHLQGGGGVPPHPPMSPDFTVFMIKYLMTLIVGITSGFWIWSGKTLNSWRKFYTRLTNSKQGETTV

| Binder | binding result |
| --- | --- |
| B3 | binds |
